In data set [1] the target is T1, MtrA Y102C~P Y102C (UniProt P9WGM7).
T1 sequence: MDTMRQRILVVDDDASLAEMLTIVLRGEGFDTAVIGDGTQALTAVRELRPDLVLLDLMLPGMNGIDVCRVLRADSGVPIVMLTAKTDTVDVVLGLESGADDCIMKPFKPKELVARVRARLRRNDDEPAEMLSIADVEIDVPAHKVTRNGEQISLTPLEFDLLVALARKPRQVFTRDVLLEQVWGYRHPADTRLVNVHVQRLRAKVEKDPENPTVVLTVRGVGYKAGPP
Briefly: EMSA. As to conditions: 50 mM Tris-HCl pH 7.5, 50 mM NaCl, 10 mM MgCl2, 10 mM CaCl2, […]. On the technique in general: Mobility shift assays separate free from complexed probe on a gel.

In data set [2] the target is T2, MtrA Y102C (unphosphorylated) Y102C (UniProt P9WGM7).
T2 sequence: T1 sequence
Briefly: EMSA. As to conditions: 50 mM Tris-HCl pH 7.5, 50 mM NaCl, 10 mM MgCl2, 10 mM CaCl2, […].

This note sets out measurements from paper PMC6265350.

Turning to “CTGTGCAGAGTAGGTGATCGGCGGCCCGACCGCGAGGAGCCGCGCTGTGACTGGCGGGACGAAAGTTACAGATGAAGATATTTGCGTCCGGTGTCGGTGAGCACGCTGCGCAGGATGGTTTCGATGGTGTCGAACTCGGGCTGTCCGCTAATCAGCGGGGGAGCCACCTGGACGACGGGGTCCCCGCGGTCGTCGGTG (double strand) [PdacB1]”, the binding result in data set [1] and in data set [2] was “binds” throughout.
